Substitutions are numbered along the chain they refer to. Ends that are not written are not given here.
T1: FLAG-tagged cynomolgous APRIL (cynomolgus monkey, UniProt A0ACM8R0G4 110-250 (rhesus entry))
T1 construct: FLAG-tagged, expressed with TPA signal peptide; also called cyAPRIL
T1 sequence: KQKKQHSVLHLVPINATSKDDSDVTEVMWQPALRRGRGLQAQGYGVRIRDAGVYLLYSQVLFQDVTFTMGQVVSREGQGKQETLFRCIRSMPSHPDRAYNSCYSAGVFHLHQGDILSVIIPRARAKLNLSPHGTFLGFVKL

T2: FLAG-tagged recombinant human APRIL (human, UniProt O75888 105-250)
T2 construct: KINEXA ligand; also called huAPRIL
T2 sequence: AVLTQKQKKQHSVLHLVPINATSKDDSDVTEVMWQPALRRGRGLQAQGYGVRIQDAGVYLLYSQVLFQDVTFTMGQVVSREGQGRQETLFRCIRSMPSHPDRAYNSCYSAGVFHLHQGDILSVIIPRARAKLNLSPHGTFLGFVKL

B1: Variant BAv3-10-Ig (Fc fusion, human)
chain: AGQCSQNEYFDRLIRACIPCQLRCSSNTPPLTCQRYCNAGVTNSVKGTNAERKSSVECPPSPAPPVAGPSVFLFPPKPKDTLMISRTPEVTCVVVDVSHEDPEVQFNWYVDGVEVHNAKTKPREEQFNSTFRVVSVLTVVHQDWLNGKEYKCKVSNKGLPAPIEKTISKTKGQPREPQVYTLPPSREEMTKNQVSLTCLVKGFYPSDISVEWESNGQPENNYKTTPPMLDSDGSFFLYSKLTVDKSRWQQGNVFSCSVMHEALHNHYTQKSLSLSPGK
notes: domain: Fc; also called Variant 3-10-Ig; BAv3-10-PIg18
B2: Variant BAv9-1-Ig (Fc fusion, human)
chain: B1 chain with R12H
notes: domain: Fc; also called Variant 9-1-Ig; BAv9-1-pIg18
B3: Variant BAv8-9-Ig (Fc fusion, human)
chain: B1 chain with R12H, I14L
notes: domain: Fc; also called Variant 8-9-Ig; BAv8-9-PIg18
B4: Variant BAv11-6-Ig (Fc fusion, human)
chain: B1 chain with I14L, L22V
notes: domain: Fc; also called Variant 11-6-Ig; BAv11-6-PIg18
B5: Variant BAv1-12-Ig (Fc fusion, human)
chain: B1 chain with I14V, R15N
notes: domain: Fc; also called Variant 1-12-Ig
B6: Variant 50238475-Ig (Fc fusion, human)
chain: B1 chain with F10Y, R12H, P19S, L22I, T28N, L31P, T32I
notes: domain: Fc; also called Parent 9; Variant 50238475-PIg18
B7: BAv66-Ig (Fc fusion, human)
chain: B1 chain with R12H, L22G
notes: domain: Fc; also called Variant BAv66-Ig
B8: BAv49-Ig (Fc fusion)
chain: AGQCSQNEYFDPLIRACIPCQVRCSSNTPPLTCQRYCNAGVTNSVKGTNA
notes: also called BAv49 (3)-Ig; BAv49-pIg18; not shown: PIg18: human IgG2 Fc, Ser at Fc positions 4, 5, 11 (native Cys)
B9: BAv9-1-[K46-A50]del-pIg22 (Fc fusion, human)
chain: AGQCSQNEYFDHLIRACIPCQLRCSSNTPPLTCQRYCNAGVTNSV
modifications: cysteine pairing not given here; also: fused to PIg22 Fc, not in chain
notes: domain: Fc; also called BAv9-1-des[K46-A50]-PIg22; not shown: PIg22: chimeric Fc, CH2 domain of PIg18 (human IgG2 derivative) and CH3 domain of human IgG1
B10: BAv9-1-5L-pIg18 (Fc fusion)
chain: B8 chain with P12H, V22L, K46G, T48G, N49G, A50S
notes: not shown: PIg18: human IgG2 Fc, Ser at Fc positions 4, 5, 11 (native Cys)
B11: BAv9-1-pIg22 (Fc fusion, human)
chain: B8 chain with P12H, V22L
notes: domain: Fc; not shown: PIg22: chimeric Fc, CH2 domain of PIg18 (human IgG2 derivative) and CH3 domain of human IgG1
B12: BAv9-1K46G-pIg22 (Fc fusion, human)
chain: B8 chain with P12H, V22L, K46G
notes: as for B11
B13: BAv9-1-5L-pIg22 (Fc fusion, human)
chain: B8 chain with P12H, V22L, K46G, T48G, N49G, A50S
modifications: not fully specified (C-terminus); cysteine pairing not given here; also: terminal Fc lysine may be cleaved off ([K278]del)
notes: domain: Fc; terminal lysine may be cleaved off; also called BAv9-1-5L-pIg22 [K278]del; not shown: PIg22: chimeric Fc, CH2 domain of PIg18 (human IgG2 derivative) and CH3 domain of human IgG1

The binders below were run against T3, FLAG-tagged human BAFF (human, UniProt Q9Y275 134-285, limits assumed) (assay: BIACORE SPR).
T3 construct: used in BIACORE (Ex. 9) and KINEXA (Ex. 11); also called huBAFF
Source text: (§1) The standard kinetic assay measures binding kinetics of trimeric ligand (e.g., human BAFF, cynomolgus monkey APRIL, mouse BAFF, or mouse APRIL) coated on sensor chips and dimeric analytes (e.g., variant BCMA-Ig fusion proteins) in the mobile phase. […] For human BAFF, cynomolgus monkey APRIL, and mouse APRIL measurements, mouse monoclonal antibody (IgG1) anti-FLAG M2 (Sigma Aldrich, Cat. No. F1804) was immobilized on CM3 sensor chips (GE Healthcare, Cat. No. BR-1005-41) according to the manufacturer's protocol. Antibody was diluted to 30 μg/ml in immobilization buffer (10 mM pH 5±0.20; GE Healthcare; GE Healthcare, Catalog No. BR-1003-51). […] Unreacted sites were quenched with 35 μl of 1M ethanolamine-HCl, pH 8.5 (GE Healthcare, GE Healthcare, Cat. No. BR-1000-50). This procedure typically yielded 3,000-4,000 response units (RU) of coupled antibody.
(§2) The fusion polypeptides were diluted in HBS-EP buffer and flowed over ligand-coated sensor chips. The variant BCMA-Ig and surrogate control fusion proteins were injected at three concentrations (1.5 nM, 15 nM, and 150 nM at 30 μl/min for 2 minutes per association phase) in a single binding cycle, followed by a 20 minute incubation with HBS-EP buffer containing no protein at the same flow rate. A similar protocol was followed for Z-TACI-Ig, except that the injections were at 4.5 nM, 45 nM, and 450 nM.
(§3) The analyses described above were performed on protein preparations of representative variant BCMA ECD-Ig fusion polypeptides, as well as the Z-TACI-Ig and [S40G]huBCMA ECD-Ig control fusion polypeptides, and the data is presented in Table 1.

Binder | fold improvement KD vs control
B1 | 24.6 fold
B2 | 14.8 fold
B3 | 12.6 fold
B4 | 7.6 fold
B5 | 9.8 fold
B6 | 2.2 fold
B7 | 1.3 fold

What follows are binders tested against T1, FLAG-tagged cynomolgous APRIL (assay: BIACORE SPR).
Source text: as §1, §2, §3

Binder | fold improvement KD vs control
B1 | 1.1 fold
B2 | 0.7 fold
B3 | 0.7 fold
B4 | 0.6 fold
B5 | 1.5 fold
B6 | 0.2 fold
B7 | 0.00024 fold

The binders below were run against T2, FLAG-tagged recombinant human APRIL (assay: KinExA).
Experimental: (§4) Equilibrium measurements were performed using FLAG-tagged, recombinant huBAFF and huAPRIL ligands. Fixed ligand concentrations of human BAFF or human APRIL were incubated with serial dilutions of the variant BCMA ECD-Ig fusion polypeptides, and free ligand was detected in a KINEXA 3200 Instrument. variant BCMA ECD-Ig fusion polypeptides were first diluted in equilibration buffer (1×PBS, pH 7.4, 1 mg/ml BSA) to a range of concentrations from 10 nM to 100 fM. The linear portion of the dilution series was typically 2-fold. Ligands were diluted in equilibration buffer to fixed concentrations ranging from 5 to 20 pM and then incubated with the variant BCMA-Ig dilutions in total reaction volumes ranging from 4.5 to 15 ml. Samples were incubated at room temperature for 48-72 hours to reach equilibrium. For each data point, a fresh column of 850 μl of bead slurry coated with Variant BAv-238475-Ig was introduced into the KINEXA flow cell. Equilibrated samples ranging from 1 to 5 ml reaction volume were injected at a flow rate of 0.25 ml/min. […] The DyLight 649 fluorescent signal was detected using the red filter set (620/30 nanometer excitation filter, 670/40 nanometer emission filter, 645 nanometer dichroic filter) on the KinExA instrument and converted to a voltage signal that was directly proportional to the concentration of free ligand in the equilibrated sample.
(§5) The standard kinetic exclusion assays and data analyses described above were performed on protein preparations of various variant BCMA ECD-Ig fusion polypeptides, as well as Z-TACI-Ig and [S40G]huBCMA ECD-Ig fusion polypeptides. FIG. 8A, FIG. 8B, and Table 4 summarize the binding data for representative variant BCMA ECD-Ig polypeptides and controls in molar concentrations of huBAFF or huAPRIL determined by KINEXA binding assays.

Binder | fold improvement over control | Kd
B1 | 0.47 fold | 
B2 | 0.8 fold | 
B3 | 7.1 fold | 
B4 | 0.1 fold | 
B5 | 0.68 fold | 
B8 | 0.00051 fold | 313 pM

The binders below were run against T3, FLAG-tagged human BAFF (assay: KinExA).
Experimental: as §4, §5

Binder | fold improvement over control | Kd
B1 | 400 fold | 
B2 | 533 fold | 
B3 | 75.3 fold | 
B4 | 224 fold | 
B5 | 231 fold | 
B8 | 268 fold | 0.842 pM

Molecular target: T2, FLAG-tagged recombinant human APRIL
Test: KinExA
Remark: another data set of the same source
Experimental: as §4
(§6) Table 5 provides the selectivities of exemplary variant BCMA polypeptides with respect to BAFF and APRIL.

Binder | Selectivity for huAPRIL (KD BAFF/KD APRIL)
B1 | 1.7 ratio
B2 | 2.1 ratio
B3 | 134 ratio
B4 | 0.62 ratio
B5 | 3.56 ratio
B8 | 0.003 ratio

Molecular target: T3, FLAG-tagged human BAFF
Test: KinExA
Remark: another data set of the same source
Experimental: as §4, §6

Binder | Selectivity for huBAFF (KD APRIL/KD BAFF)
B1 | 0.6 ratio
B2 | 0.47 ratio
B3 | 0.0075 ratio
B4 | 1.6 ratio
B5 | 0.3 ratio
B8 | 372 ratio

Molecular target: T2, FLAG-tagged recombinant human APRIL
Test: KinExA
Remark: another data set of the same source
Experimental: as §4
(§7) The various fusion proteins described above were expressed and purified as described previously (Examples 2 and 3 for the CET1019AS based plasmids and Examples 7 and 8 for the pcDNA based plasmids). […] The BAv9-1-Ig Fc proteins typically exist in solution as a dimeric fusion protein. The purified fusion proteins were assayed for binding activity using BIACORE (Example 9) and KINEXA (Example 11) assays.

Binder | Kd
B9 | 0.31 pM
B10 | 1.26 pM
B11 | 0.088 pM
B8 | 313 pM
B12 | 0.32 pM
B13 | 0.611 pM

Molecular target: T3, FLAG-tagged human BAFF
Test: KinExA
Remark: another data set of the same source
Experimental: as §4, §7

Binder | Kd
B9 | 0.417 pM
B10 | 0.301 pM
B11 | 0.537 pM
B8 | 0.842 pM
B12 | 0.484 pM
B13 | 0.864 pM

Molecular target: T3, FLAG-tagged human BAFF
Test: BIACORE SPR
Remark: another data set of the same source
Experimental: (§8) For human BAFF, cynomolgus monkey APRIL, and mouse APRIL measurements, mouse monoclonal antibody (IgG1) anti-FLAG M2 (Sigma Aldrich, Cat. No. F1804) was immobilized on CM3 sensor chips (GE Healthcare, Cat. No. BR-1005-41) according to the manufacturer's protocol. Antibody was diluted to 30 μg/ml in immobilization buffer (10 mM pH 5±0.20; GE Healthcare; GE Healthcare, Catalog No. BR-1003-51). […] Unreacted sites were quenched with 35 μl of 1M ethanolamine-HCl, pH 8.5 (GE Healthcare, GE Healthcare, Cat. No. BR-1000-50). This procedure typically yielded 3,000-4,000 response units (RU) of coupled antibody.
as §2
(§9) Sequence optimization involved generating revertants from the variant BCMA ECD-Ig molecules using standard site-directed mutagenesis methods such as by SOEing as described herein above. Single as well as multiple revertants from twelve different variant-BCMA-pIg18 were generated, cloned in the pcDNA3.1 vector (Life Technologies, as described in Example 6), expressed and purified as described in Examples 6-8. The resulting proteins were assayed for their binding characteristics using Surface Plasmon Resonance as described in Example 9.

Binder | fold improvement over control
B6 | 4.7 fold

Molecular target: T1, FLAG-tagged cynomolgous APRIL
Test: BIACORE SPR
Remark: another data set of the same source
Experimental: as §8, §2, §9

Binder | fold improvement over control
B6 | 0.4 fold

Molecular target: T3, FLAG-tagged human BAFF
Test: BIACORE SPR
Remark: another data set of the same source
Experimental: as §8, §2, §7

Binder | Kd
B9 | 20.4 pM
B10 | 17.5 pM
B11 | 15.7 pM
B8 | 16.2 pM
B12 | 16.5 pM
B13 | 16.5 pM

Molecular target: T1, FLAG-tagged cynomolgous APRIL
Test: BIACORE SPR
Remark: another data set of the same source
Experimental: as §8, §2, §7

Binder | Kd
B9 | 41.8 pM
B10 | 42.5 pM
B11 | 33.7 pM
B8 | 1450 pM
B12 | 45.6 pM
B13 | 41.8 pM

Source: patent publication US20250042970A1 (AURINIA PHARMACEUTICALS, published 2025)
